± gives the uncertainty stated by the source.
Assay: self-splicing fitness, log relative to wild type (ln ratio); higher = more splicing; Tetrahymena group I intron in knt gene, E. coli kanamycin selection, DiMSum; sequences stand for … in CUCUCU…GGAGGGAAAAGUUAUCAGGCAUGCACCUGGUAGCUAGUCUUUAAACCAAUAGAUUGCAUCGGUUUAAAAGGCAAGACCGUCAAAUUGCGGGAAAGGGGUCAACAGCCGUUCAGUACCAAGUCUCAGGGGAAACUUUGAGAUGGCCUUGCAAAGGGUAUGGUAAUAAGCUGACGGACAUGGUCCUAACCACGCAGCCAAGUCCUAAGUCAACAGAUCUUCUGUUGAUAUGGAUGCAGUUCACAGACUAAAUGUCGGUCGGGGAAGAUGUAUUCUUCUCAUAAGAUAUAGUCGGACCUCUCCUUAAUGGGAGCUAGCGGAUGAAGUGAUGCAACACUGGAGCCGCUGGGAACUAAUUUGUAUGCGAAAGUAUAUUGAUUAGUUUUGGAGUACUCGUGGUCG
Method in brief: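 Six replicate transformations of E. coli BL21(DE3) with a pET-22b(+) library were grown overnight at 37°C or 30°C. The library randomised all eight P1ex-region intron nucleotides, the intron lying in the knt kanamycin-resistance gene, and plates were LB agar with or without 25 μg/mL kanamycin plus 100 μg/mL carbenicillin, 50 μM IPTG and 0.2% rhamnose. Pooled colonies were amplicon-sequenced on an Illumina HiSeq 2500, and fitness is the DiMSum error-weighted combination of wild-type-normalised replicate fold changes, kanamycin versus none.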

Sequence	self-splicing fitness (ln) (30 °C)	self-splicing fitness (ln) (37 °C)
CUGUAGCAAUAUUACGUUGG	-3.56 ± 0.13	-1.46 ± 0.11
CUGUAGCAAUAUUACGUUUC	-3.58 ± 0.19	-2.99 ± 0.32
CUUAAGCAAUAUUACGAAAA	-1.9 ± 0.26	–
CUUAAGCAAUAUUACGACGA	-3.58 ± 0.25	-2.61 ± 0.23
CUUAAGCAAUAUUACGAGAG	-4.39 ± 0.42	-2.48 ± 0.45
CUUAAGCAAUAUUACGAGCG	-0.691 ± 0.1	-0.156 ± 0.15
CUUAAGCAAUAUUACGAGUA	-3.63 ± 0.24	-1.94 ± 0.2
CUUAAGCAAUAUUACGAUAG	-2.01 ± 0.15	-0.283 ± 0.15
CUUAAGCAAUAUUACGAUGU	-3.88 ± 0.37	-0.792 ± 0.21
CUUAAGCAAUAUUACGCAAG	-3.07 ± 0.41	-2.58 ± 0.34
CUUAAGCAAUAUUACGCCAA	-2.46 ± 0.42	-2.43 ± 0.33
CUUAAGCAAUAUUACGCUGC	–	-1 ± 0.35
CUUAAGCAAUAUUACGGAAA	-3.23 ± 0.38	-2.1 ± 0.28
CUUAAGCAAUAUUACGGACU	-3.14 ± 0.15	-1.62 ± 0.17
CUUAAGCAAUAUUACGGAUG	-0.76 ± 0.056	-0.0373 ± 0.077
CUUAAGCAAUAUUACGUAUA	-2.9 ± 0.23	-3.19 ± 0.29
CUUAAGCAAUAUUACGUUCA	-2.9 ± 0.27	-3.79 ± 0.47
CUUAAGCAAUAUUACGUUGC	–	-2.03 ± 0.35
CUUAAGCAAUAUUACGUUUG	-3.89 ± 0.2	-2.73 ± 0.3
CUUAAGCAAUAUUACGUUUU	-4.2 ± 0.25	-2.07 ± 0.21
CUUCAGCAAUAUUACGAACU	-3.9 ± 0.37	-1.75 ± 0.27
CUUCAGCAAUAUUACGACGU	-3.67 ± 0.21	-2.12 ± 0.21
CUUCAGCAAUAUUACGACUA	-2.12 ± 0.39	–
CUUCAGCAAUAUUACGAUGA	-4.12 ± 0.42	-1.71 ± 0.25
CUUCAGCAAUAUUACGCAGA	-3.44 ± 0.37	-2.18 ± 0.22
CUUCAGCAAUAUUACGCAGG	-4.17 ± 0.34	-2.07 ± 0.26

Sequence	self-splicing fitness (ln) (30 °C)	self-splicing fitness (ln) (37 °C)
CUUCAGCAAUAUUACGCGCG	-0.941 ± 0.056	-0.367 ± 0.087
CUUCAGCAAUAUUACGGCCU	–	-1.66 ± 0.38
CUUCAGCAAUAUUACGGGAU	-2.14 ± 0.084	-1.34 ± 0.095
CUUCAGCAAUAUUACGGUCU	-2.93 ± 0.15	-2.21 ± 0.2
CUUCAGCAAUAUUACGGUGA	-3.2 ± 0.21	-2.67 ± 0.18
CUUCAGCAAUAUUACGUAAA	-3.05 ± 0.15	-2.12 ± 0.19
CUUCAGCAAUAUUACGUAAC	-2.65 ± 0.32	-2.27 ± 0.45
CUUCAGCAAUAUUACGUCCA	-2.19 ± 0.29	-2.63 ± 0.36
CUUCAGCAAUAUUACGUGAA	-2.71 ± 0.12	-2.72 ± 0.2
CUUCAGCAAUAUUACGUGGC	-2.61 ± 0.23	-2.08 ± 0.43
CUUCAGCAAUAUUACGUGUC	-3.03 ± 0.13	-2.3 ± 0.12
CUUCAGCAAUAUUACGUUGG	-3.67 ± 0.23	-4.08 ± 0.46
CUUGAGCAAUAUUACGAACC	–	-1.54 ± 0.44
CUUGAGCAAUAUUACGAAUA	-3.26 ± 0.48	–
CUUGAGCAAUAUUACGAGCU	-1.6 ± 0.46	–
CUUGAGCAAUAUUACGAGGU	-2.39 ± 0.19	-2.42 ± 0.22
CUUGAGCAAUAUUACGAUCA	–	-2.89 ± 0.48
CUUGAGCAAUAUUACGAUGG	-2.94 ± 0.2	-2.13 ± 0.23
CUUGAGCAAUAUUACGCGGG	-3.92 ± 0.3	-0.302 ± 0.18
CUUGAGCAAUAUUACGCGUG	-2.84 ± 0.18	-0.143 ± 0.11
CUUGAGCAAUAUUACGCUCG	-1.7 ± 0.17	-2.65 ± 0.44
CUUGAGCAAUAUUACGCUGU	-2.28 ± 0.19	-2.06 ± 0.32
CUUGAGCAAUAUUACGGAGU	-1.09 ± 0.13	-1.97 ± 0.28
CUUGAGCAAUAUUACGGAUC	–	-1.45 ± 0.31
CUUGAGCAAUAUUACGGGCC	–	-2.81 ± 0.34

Source: the supplement of paper PMC7877785
